# Reference: patent US20050112126A1 (Genentech, published 2005)
# Biological target: T1, VEGF (human, UniProt P15692-4 27-191, limits assumed)
# T1 construct: Biotinylated in the KDR-IgG ELISA, amine-coupled to the chip in BIAcore; also called biotinylated VEGF; vascular endothelial growth factor
# Assay: competitive phage-ELISA, relative to pY0192
# Method: In such an assay, phages were first serially diluted to determine a fractional saturation titer which was then held constant and used to incubate with varying concentrations of VEGF (starting at 200 nM to 0 nM) in solution. The mixture was then transferred onto plate precoated with VEGF (2 μg/mL) and blocked with 5% instant milk, and allowed to equilibrate for 1 hour at room temperature. Thereafter, the phage solution was removed and the remaining bound phages were detected with a solution of rabbit anti-phage antibody mixed with goat anti-rabbit conjugate of horse radish peroxidase. After an hour incubation at room temperature, the plate was developed with a chromogenic substrate, o-phenylenediamine (Sigma). The reaction was stopped with addition of ½ volume of 2.5 M H₂SO₄. Optical density at 492 nm was measured on a spectrophotometric plate reader.
# IC50's were determined in a competitive phage-ELISA assay.
# T1 sequence (P15692 other isoform, or with tags, fused parts or gaps limits assumed): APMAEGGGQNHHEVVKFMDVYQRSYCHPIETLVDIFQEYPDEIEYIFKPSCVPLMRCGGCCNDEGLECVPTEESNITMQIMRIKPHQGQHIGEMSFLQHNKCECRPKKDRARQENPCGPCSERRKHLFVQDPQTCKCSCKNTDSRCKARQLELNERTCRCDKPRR
row,Binder,IC50 (mut)/IC50 (wt) [ratio]
1,"pY0192 VH T55A (Fab, V domains shown, Ala-scan variant of pY0192; Fab on phage) VH: EVQLVESGGGLVQPGGSLRLSCAASGYTFTNYGINWVRQAPGKGLEWVGWINTYAGEPTYAADFKRRFTFSLDTSKSTAYLQMNSLRAEDTAVYYCAKYPHYYGSSHWYFDVWGQGTL VL: DIQLTQSPSSLSASVGDRVTITCRANEQLSNYLNWYQQKPGKAPKVLIYFTSSLHSGVPSRFSGSGSGTDFTLTISSLQPEDFATYYCQQYSTVPWTFGQGTKVEIKR",4
2,"pY0192 VH Y60A (Fab, V domains shown, Ala-scan variant of pY0192; Fab on phage) VH: EVQLVESGGGLVQPGGSLRLSCAASGYTFTNYGINWVRQAPGKGLEWVGWINTYTGEPTAAADFKRRFTFSLDTSKSTAYLQMNSLRAEDTAVYYCAKYPHYYGSSHWYFDVWGQGTL VL: DIQLTQSPSSLSASVGDRVTITCRANEQLSNYLNWYQQKPGKAPKVLIYFTSSLHSGVPSRFSGSGSGTDFTLTISSLQPEDFATYYCQQYSTVPWTFGQGTKVEIKR",2
3,"pY0192 VH Y27A (Fab, V domains shown, Ala-scan variant of pY0192; Fab on phage) VH: EVQLVESGGGLVQPGGSLRLSCAASGATFTNYGINWVRQAPGKGLEWVGWINTYTGEPTYAADFKRRFTFSLDTSKSTAYLQMNSLRAEDTAVYYCAKYPHYYGSSHWYFDVWGQGTL VL: DIQLTQSPSSLSASVGDRVTITCRANEQLSNYLNWYQQKPGKAPKVLIYFTSSLHSGVPSRFSGSGSGTDFTLTISSLQPEDFATYYCQQYSTVPWTFGQGTKVEIKR",34
4,"pY0192 VH Y103A (Fab, V domains shown, Ala-scan variant of pY0192; Fab on phage) VH: EVQLVESGGGLVQPGGSLRLSCAASGYTFTNYGINWVRQAPGKGLEWVGWINTYTGEPTYAADFKRRFTFSLDTSKSTAYLQMNSLRAEDTAVYYCAKYPHYAGSSHWYFDVWGQGTL VL: DIQLTQSPSSLSASVGDRVTITCRANEQLSNYLNWYQQKPGKAPKVLIYFTSSLHSGVPSRFSGSGSGTDFTLTISSLQPEDFATYYCQQYSTVPWTFGQGTKVEIKR",5
5,"pY0192 VH T59A (Fab, V domains shown, Ala-scan variant of pY0192; Fab on phage) VH: EVQLVESGGGLVQPGGSLRLSCAASGYTFTNYGINWVRQAPGKGLEWVGWINTYTGEPAYAADFKRRFTFSLDTSKSTAYLQMNSLRAEDTAVYYCAKYPHYYGSSHWYFDVWGQGTL VL: DIQLTQSPSSLSASVGDRVTITCRANEQLSNYLNWYQQKPGKAPKVLIYFTSSLHSGVPSRFSGSGSGTDFTLTISSLQPEDFATYYCQQYSTVPWTFGQGTKVEIKR",3
6,"pY0192 VH Y54A (Fab, V domains shown, Ala-scan variant of pY0192; Fab on phage) VH: EVQLVESGGGLVQPGGSLRLSCAASGYTFTNYGINWVRQAPGKGLEWVGWINTATGEPTYAADFKRRFTFSLDTSKSTAYLQMNSLRAEDTAVYYCAKYPHYYGSSHWYFDVWGQGTL VL: DIQLTQSPSSLSASVGDRVTITCRANEQLSNYLNWYQQKPGKAPKVLIYFTSSLHSGVPSRFSGSGSGTDFTLTISSLQPEDFATYYCQQYSTVPWTFGQGTKVEIKR",9
7,"pY0192 VH Y109A (Fab, V domains shown, Ala-scan variant of pY0192; Fab on phage) VH: EVQLVESGGGLVQPGGSLRLSCAASGYTFTNYGINWVRQAPGKGLEWVGWINTYTGEPTYAADFKRRFTFSLDTSKSTAYLQMNSLRAEDTAVYYCAKYPHYYGSSHWAFDVWGQGTL VL: DIQLTQSPSSLSASVGDRVTITCRANEQLSNYLNWYQQKPGKAPKVLIYFTSSLHSGVPSRFSGSGSGTDFTLTISSLQPEDFATYYCQQYSTVPWTFGQGTKVEIKR",19
8,"pY0192 VH Y102A (Fab, V domains shown, Ala-scan variant of pY0192; Fab on phage) VH: EVQLVESGGGLVQPGGSLRLSCAASGYTFTNYGINWVRQAPGKGLEWVGWINTYTGEPTYAADFKRRFTFSLDTSKSTAYLQMNSLRAEDTAVYYCAKYPHAYGSSHWYFDVWGQGTL VL: DIQLTQSPSSLSASVGDRVTITCRANEQLSNYLNWYQQKPGKAPKVLIYFTSSLHSGVPSRFSGSGSGTDFTLTISSLQPEDFATYYCQQYSTVPWTFGQGTKVEIKR",4
